Test results: patent US20260000597A1 (priority 2018, published 2026)

Target: AchR (Homo sapiens, UniProt P02708)
Experiment: ELISA of screened peptide phages on AchR versus streptavidin (OD450)
Assay type: binding
Details: ELISA of selected 11-mer (L2) peptide phages on AchR, absorbance at 450 nm; Spep-2 positive control
How it was run: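 Reported as the ratio of AchR to streptavidin OD450, with TMB read-out after HRP anti-M13 detection. Wells coated with 5 μg/ml target overnight at 4 °C and BSA-blocked, then incubated 1 h at 30 °C with helper-rescued phage from individual plaques.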

Chain of AchR (P02708 21-457): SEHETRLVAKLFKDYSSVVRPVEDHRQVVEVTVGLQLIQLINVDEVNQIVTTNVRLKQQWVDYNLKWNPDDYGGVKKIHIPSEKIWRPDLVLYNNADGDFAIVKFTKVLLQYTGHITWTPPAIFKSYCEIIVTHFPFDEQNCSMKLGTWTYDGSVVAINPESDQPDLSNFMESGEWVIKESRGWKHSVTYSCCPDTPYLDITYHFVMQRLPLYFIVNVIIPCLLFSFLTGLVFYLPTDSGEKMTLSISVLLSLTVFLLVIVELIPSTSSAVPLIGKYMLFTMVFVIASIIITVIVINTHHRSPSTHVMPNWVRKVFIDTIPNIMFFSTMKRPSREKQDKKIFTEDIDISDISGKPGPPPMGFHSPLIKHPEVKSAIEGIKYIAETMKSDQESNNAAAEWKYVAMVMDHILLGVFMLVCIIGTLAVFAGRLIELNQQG

Substance	OD
L2-93 (FNPKMRKVCLR; AchR binding peptide) [Peptide L2-93]	0.635
L2-100 (MNYRCKRVQER; AchR binding peptide) [Peptide L2-100]	0.551
L2-64 (SPFRAKRQDVR; AchR binding peptide) [Peptide L2-64]	0.683
L2-56 (FICKSRKFYGK; AchR binding peptide) [Peptide L2-56]	0.713
L2-28 (CIWKSKRSPAK; AchR binding peptide) [Peptide L2-28]	0.762
L2-156 (YGLRMRKWYMK; AchR binding peptide) [Peptide L2-156]	0.683
L2-76 (PWVRIRKMASR; AchR binding peptide) [Peptide L2-76]	0.725
L2-125 (PADKGRREVMK; AchR binding peptide) [Peptide L2-125]	0.481
L2-72 (APHKWRKQEQR; AchR binding peptide) [Peptide L2-72]	0.638
L2-144 (PYTRCRKEICK; AchR binding peptide) [Peptide L2-144]	0.521
L2-178 (VPYRHRRMQFK; AchR binding peptide) [Peptide L2-178]	0.718
L2-160 (ADIRMKKWYPK; AchR binding peptide) [Peptide L2-160]	0.721
L2-97 (DVNKYRKHSHK; AchR binding peptide) [Peptide L2-97]	0.531
L2-1 (EDYKYRRQNYK; AchR binding peptide) [Peptide L2-1]	0.705
L2-68 (GPDKSRRNLHR; AchR binding peptide) [Peptide L2-68]	0.721
L2-153 (GHQRGKREGSR; AchR binding peptide) [Peptide L2-153]	0.688
L2-181 (PGARCRKQDVK; AchR binding peptide) [Peptide L2-181]	0.749
L2-173 (SWAKARKLVHR; AchR binding peptide) [Peptide L2-173]	0.705
L2-38 (ESEKIKRLSTR; AchR binding peptide) [Peptide L2-38]	0.88
L2-170 (QVHRNKRYTDR; AchR binding peptide) [Peptide L2-170]	0.718
L2-52 (LPSRPKKPVPK; AchR binding peptide) [Peptide L2-52]	0.624
L2-121 (HETKPKKDGLR; AchR binding peptide) [Peptide L2-121]	0.492
L2-35 (NFTKLRKPGPR; AchR binding peptide) [Peptide L2-35]	0.683
L2-120 (PAARTKRMYGR; AchR binding peptide) [Peptide L2-120]	0.607
L2-29 (AILKGKRIPNK; AchR binding peptide) [Peptide L2-29]	0.756

Same assay, conditions: ELISA of selected 14-mer (L3) peptide phages on AchR, absorbance at 450 nm; Spep-2 positive control

Substance	OD
L3-5 (NEDRGKRPHIRVLG; AchR binding peptide) [Peptide L3-5]	0.82
L3-130 (EHSKHRKDLFRMVG; AchR binding peptide) [Peptide L3-130]	0.531
L3-105 (YYEKIRRGEIKIAE; AchR binding peptide) [Peptide L3-105]	0.601
L3-182 (FYLRERRHQLKTEF; AchR binding peptide) [Peptide L3-182]	0.818
L3-16 (DYLRSRKMEERFQE; AchR binding peptide) [Peptide L3-16]	0.797
L3-24 (FVRKKRKSLLRDTR; AchR binding peptide) [Peptide L3-24]	0.846
L3-168 (MGLRARKYEDKTLH; AchR binding peptide) [Peptide L3-168]	0.775
L3-18 (EYQKCKKPSFRLTM; AchR binding peptide) [Peptide L3-18]	0.806
L3-35 (LQCKYRRGSDKQPQ; AchR binding peptide) [Peptide L3-35]	0.747
L3-139 (FHHRHKRIATKHPA; AchR binding peptide) [Peptide L3-139]	0.49
L3-9 (NCNRFRRTIVRHCH; AchR binding peptide) [Peptide L3-9]	0.725
L3-118 (YGIRDRRPMTKHTQ; AchR binding peptide) [Peptide L3-118]	0.69
L3-180 (QGIRPRKHLQRMPN; AchR binding peptide) [Peptide L3-180]	0.7
L3-145 (MHIKMKREQVKDEE; AchR binding peptide) [Peptide L3-145]	0.495
L3-7 (EGDKFRRHDIKYNF; AchR binding peptide) [Peptide L3-7]	0.803
L3-8 (PICRWKRAPFKWYF; AchR binding peptide) [Peptide L3-8]	0.777
L3-42 (ETNRTRKQCYKTTF; AchR binding peptide) [Peptide L3-42]	0.71

Substance	OD
L3-112 (ALPRVRKDSHREEI; AchR binding peptide) [Peptide L3-112]	0.731
L3-161 (MAAKWKKDGMKSHY; AchR binding peptide) [Peptide L3-161]	0.733
L3-94 (PVLKLRKGRVRAQP; AchR binding peptide) [Peptide L3-94]	0.61
L3-153 (FHTKLRKPIPKIDM; AchR binding peptide) [Peptide L3-153]	0.768
L3-3 (SGVRYRKWWIRSVV; AchR binding peptide) [Peptide L3-3]	0.88
L3-175 (TCHKTKRSIMRATS; AchR binding peptide) [Peptide L3-175]	0.768
L3-192 (NGYRARKENLKFPE; AchR binding peptide) [Peptide L3-192]	0.735
L3-158 (FDMRDRRPNARVMP; AchR binding peptide) [Peptide L3-158]	0.738
L3-184 (DMDKVKKWVWRSFP; AchR binding peptide) [Peptide L3-184]	0.766
L3-90 (LWNRYKKLLMRIFW; AchR binding peptide) [Peptide L3-90]	0.818
L3-200 (HMCRWRRQINKGVS; AchR binding peptide) [Peptide L3-200]	0.733
L3-155 (AWTRFRRFQCKGMS; AchR binding peptide) [Peptide L3-155]	0.794
L3-43 (FTHKNRRDSLRVWM; AchR binding peptide) [Peptide L3-43]	0.93
L3-17 (VGPKFRKNHRRQNR; AchR binding peptide) [Peptide L3-17]	0.812
L3-146 (AVWRNRKDNVKASE; AchR binding peptide) [Peptide L3-146]	0.512
L3-159 (QIAKLKRDQMKEAW; AchR binding peptide) [Peptide L3-159]	0.786
L3-87 (FLEKCRKFIIRVST; AchR binding peptide) [Peptide L3-87]	0.743

Same assay, conditions: phage ELISA, absorbance at 450 nm, 5 μg/ml AchR; 4th and 5th round biopanning phages

Substance	OD
KPRRPDTR [Peptide L1-109]	0.542
KWKRFSQR [Peptide L1-197]	0.631
KAKRGHFK [Peptide L1-68]	0.55
RARKLHNR [Peptide L1-103]	0.55
KDKKTPCK [Peptide L1-193]	0.588
RIKRNNCK [Peptide L1-130]	0.368
RTKKENVK [Peptide L1-180]	0.618
KPKKPPAR [Peptide L1-84]	0.576
KSRKHCNR [Peptide L1-70]	0.668
REKKYAYK [Peptide L1-181]	0.589
RIKRDYCK [Peptide L1-164]	0.616
KWRRELPR [Peptide L1-182]	0.585
KNRKNLYR [Peptide L1-36]	0.553
RIRRHMYR [Peptide L1-83]	0.621
KFRKHVCK [Peptide L1-116]	0.492
RHKRWSGR [Peptide L1-153]	0.625
RARKDAFK [Peptide L1-11]	0.703
RPRRTHIK [Peptide L1-6]	0.652
KGKKLSQR [Peptide L1-75]	0.581
KMRKHDVR [Peptide L1-74]	0.649
RTKKAYVK [Peptide L1-200]	0.621
RYKKVPAK [Peptide L1-118]	0.471
KARRVGTK [Peptide L1-143]	0.416

Substance	OD
KARRQEDK [Peptide L1-14]	0.755
RPRRSLDR [Peptide L1-17]	0.653
KWKKMMER [Peptide L1-81]	0.63
RFRRGVRR [Peptide L1-13]	0.73
KWRRNGQR [Peptide L1-98]	0.54
KSRRAVFR [Peptide L1-151]	0.479
KFRRQSTR [Peptide L1-139]	0.456
RLRRRYRR [Peptide L1-45]	0.597
KTKRGSLK [Peptide L1-101]	0.599
RGKRQLGR [Peptide L1-3]	0.649
RPRRGHQK [Peptide L1-24]	0.742
RDRKFVQK [Peptide L1-154]	0.633
KSRKWGWR [Peptide L1-39]	0.509
RGRKKCGK [Peptide L1-42]	0.695
RTKRWQLK [Peptide L1-94]	0.496
KYRRNLVR [Peptide L1-56]	0.468
RHKRWEVR [Peptide L1-195]	0.642
KKRKGSAK [Peptide L1-2]	0.68
KIKKAARR [Peptide L1-35]	0.556
KSKRHHEK [Peptide L1-69]	0.474
RHKKFIEK [Peptide L1-59]	0.479
KMRRAQGR [Peptide L1-34]	0.634
